Measurements from US20210318312.

Columns and labels:
[1] = system: DLAT K259 Acetyl peptide
[2] = system: DLAT K259 Lipoyl peptide

Chain of recombinant SIRT5 (Sigma, cat. #SRP0119-100UG) (chain, as listed by the source): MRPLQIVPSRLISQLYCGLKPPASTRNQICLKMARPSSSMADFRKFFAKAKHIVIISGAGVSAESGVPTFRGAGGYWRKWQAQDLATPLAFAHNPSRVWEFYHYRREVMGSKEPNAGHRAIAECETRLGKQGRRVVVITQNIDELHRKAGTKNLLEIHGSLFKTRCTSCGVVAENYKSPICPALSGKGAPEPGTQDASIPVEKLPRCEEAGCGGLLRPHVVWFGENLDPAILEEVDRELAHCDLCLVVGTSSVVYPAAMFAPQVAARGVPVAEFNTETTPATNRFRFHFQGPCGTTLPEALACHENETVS

“recombinant SIRT5 (Sigma, cat. #SRP0119-100UG)” was tested, and the “in vitro deacylation kinetics” value [1] was “low, but detectable activity was measured for DLAT acetyl” and the “in vitro deacylation kinetics” value [2] was “no activity was detected for DLAT lipoyl (SEQ ID NO: 8) reactions”.
